In patent US20220202913, “NOVEL OMNI-50 CRISPR NUCLEASE” (EmendoBio Inc., published 2022):

T1: OMNI-50 (Ezakiella peruensis strain M6.X2)
T1 sequence: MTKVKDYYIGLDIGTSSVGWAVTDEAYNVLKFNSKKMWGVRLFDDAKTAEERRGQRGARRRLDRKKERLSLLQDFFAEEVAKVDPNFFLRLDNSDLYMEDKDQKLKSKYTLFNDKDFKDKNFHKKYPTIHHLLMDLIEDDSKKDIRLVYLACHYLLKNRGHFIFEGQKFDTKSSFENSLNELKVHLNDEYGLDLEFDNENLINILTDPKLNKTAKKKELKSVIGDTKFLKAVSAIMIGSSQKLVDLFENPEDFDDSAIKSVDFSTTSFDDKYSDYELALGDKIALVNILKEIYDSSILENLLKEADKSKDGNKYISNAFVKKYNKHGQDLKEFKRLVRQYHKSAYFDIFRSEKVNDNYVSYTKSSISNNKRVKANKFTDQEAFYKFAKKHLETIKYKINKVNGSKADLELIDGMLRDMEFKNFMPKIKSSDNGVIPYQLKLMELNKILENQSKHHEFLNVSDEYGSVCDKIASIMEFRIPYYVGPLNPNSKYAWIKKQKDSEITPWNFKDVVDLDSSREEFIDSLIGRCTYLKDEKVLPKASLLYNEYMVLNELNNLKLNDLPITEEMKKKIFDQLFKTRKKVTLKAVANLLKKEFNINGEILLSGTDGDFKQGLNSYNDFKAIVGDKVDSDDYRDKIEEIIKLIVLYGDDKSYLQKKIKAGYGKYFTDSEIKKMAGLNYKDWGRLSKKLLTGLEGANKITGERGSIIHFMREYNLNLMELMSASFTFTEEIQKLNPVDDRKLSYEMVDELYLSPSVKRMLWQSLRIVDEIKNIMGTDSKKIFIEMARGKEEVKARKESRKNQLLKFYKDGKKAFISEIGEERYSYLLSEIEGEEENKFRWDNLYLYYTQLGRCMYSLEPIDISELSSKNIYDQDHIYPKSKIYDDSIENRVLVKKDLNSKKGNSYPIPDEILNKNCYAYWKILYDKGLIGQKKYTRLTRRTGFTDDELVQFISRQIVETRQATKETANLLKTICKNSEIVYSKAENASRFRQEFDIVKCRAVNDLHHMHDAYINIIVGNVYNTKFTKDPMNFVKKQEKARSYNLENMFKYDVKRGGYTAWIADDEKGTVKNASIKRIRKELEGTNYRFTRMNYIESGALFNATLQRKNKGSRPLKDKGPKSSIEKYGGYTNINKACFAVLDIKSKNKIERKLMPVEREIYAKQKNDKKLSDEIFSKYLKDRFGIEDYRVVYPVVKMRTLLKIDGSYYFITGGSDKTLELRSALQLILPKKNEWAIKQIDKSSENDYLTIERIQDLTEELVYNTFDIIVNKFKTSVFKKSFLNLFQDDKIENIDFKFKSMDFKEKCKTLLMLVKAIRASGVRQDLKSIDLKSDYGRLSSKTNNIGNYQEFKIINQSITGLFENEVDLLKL

T2: OMNI-50 (Ezakiella peruensis strain M6.X2)
T2 chain: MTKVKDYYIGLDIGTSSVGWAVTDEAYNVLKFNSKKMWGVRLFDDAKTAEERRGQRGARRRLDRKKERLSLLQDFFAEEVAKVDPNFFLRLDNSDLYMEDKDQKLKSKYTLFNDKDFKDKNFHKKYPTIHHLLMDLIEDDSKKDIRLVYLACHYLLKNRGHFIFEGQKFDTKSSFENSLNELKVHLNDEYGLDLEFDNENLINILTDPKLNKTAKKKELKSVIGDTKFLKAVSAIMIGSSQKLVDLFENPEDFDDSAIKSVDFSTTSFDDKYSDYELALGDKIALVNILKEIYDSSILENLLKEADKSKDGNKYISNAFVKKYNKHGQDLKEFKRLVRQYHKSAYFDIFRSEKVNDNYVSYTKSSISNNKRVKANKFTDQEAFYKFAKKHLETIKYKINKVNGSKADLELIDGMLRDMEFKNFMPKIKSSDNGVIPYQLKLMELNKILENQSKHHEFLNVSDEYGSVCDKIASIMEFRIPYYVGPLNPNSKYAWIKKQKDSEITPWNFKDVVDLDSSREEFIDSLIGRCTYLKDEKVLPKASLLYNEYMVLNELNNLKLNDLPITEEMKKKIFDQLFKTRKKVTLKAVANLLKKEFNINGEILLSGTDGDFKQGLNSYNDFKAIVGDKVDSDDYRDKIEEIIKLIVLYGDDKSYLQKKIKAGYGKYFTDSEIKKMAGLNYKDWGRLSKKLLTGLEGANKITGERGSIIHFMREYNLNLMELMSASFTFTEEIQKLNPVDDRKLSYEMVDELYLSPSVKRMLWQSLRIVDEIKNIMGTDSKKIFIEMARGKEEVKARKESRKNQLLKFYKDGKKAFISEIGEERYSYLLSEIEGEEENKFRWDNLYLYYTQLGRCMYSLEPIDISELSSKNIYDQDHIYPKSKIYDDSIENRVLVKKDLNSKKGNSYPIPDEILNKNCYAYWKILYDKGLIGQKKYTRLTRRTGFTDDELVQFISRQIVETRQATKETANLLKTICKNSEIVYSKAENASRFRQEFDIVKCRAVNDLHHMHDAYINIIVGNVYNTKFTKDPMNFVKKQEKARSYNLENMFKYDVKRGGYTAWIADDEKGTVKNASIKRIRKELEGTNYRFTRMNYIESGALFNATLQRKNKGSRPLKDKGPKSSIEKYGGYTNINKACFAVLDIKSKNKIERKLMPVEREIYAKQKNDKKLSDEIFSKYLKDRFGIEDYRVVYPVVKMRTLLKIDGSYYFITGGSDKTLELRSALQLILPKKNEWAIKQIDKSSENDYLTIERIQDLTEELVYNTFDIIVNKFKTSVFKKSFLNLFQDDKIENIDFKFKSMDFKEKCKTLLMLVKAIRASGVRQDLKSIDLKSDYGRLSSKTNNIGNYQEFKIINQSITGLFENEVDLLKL


Tests used:
[1] = system: T1, OMNI-50 (Ezakiella peruensis strain M6.X2); assay: cleavage_in_vitro; details: TXTL PAM depletion, PAM NGG; some activity with NAG and NGA; sgRNA V1 and V2
[2] = target: T2, OMNI-50; assay: cell_activity; PAM NGG; RNP in U2OS; details: tags: SV40 NLS N-terminal, HA-SV40 NLS-8xHis C-terminal (pET9a)
Method: FIG. 5A-FIG. 5D: OMNI-50 activity Assay as RNP. OMNI-50 nuclease was over-expressed and purified. The purified protein was complexed with synthetic sgRNA to form RNPs. For the in-vitro assays (FIG. 5A and FIG. 5B) RNPs were incubated with a linear DNA template containing the corresponding target and PAM sequences (listed in Table 5). Activity was verified by cleavage of the linear template. For the in-vivo assays (FIG. 5C and FIG. 5D), U2OS cells were electroporated with RNPs and activity was determined by measurement of indel frequency by NGS. FIG. 5A: Activity assay of OMNI-50 RNP with different spacer lengths (17-23 bps) of guide 35 (Table 10). FIG. 5B: Decreasing amounts of RNPs (4 pmol, 2 pmol, 1.2 pmol, 0.6 pmol and 0.2 pmol) with spacer lengths 20-23 nts were incubated with 100 ng DNA target template. FIG. 5C: Activity assay for OMNI-50 as RNP in U2OS cells: RNPs with spacer lengths 17-23 bps were electroporated into U2OS cell line and editing levels (indels) measured by NGS. FIG. 5D: Activity assay for OMNI-50 as RNP in U2OS cells: RNPs with ELANE g35 sgRNA V1-V4 were electroporated into U2OS cell line and editing levels (indels) measured by NGS.
Spacer length optimization was also performed in a mammalian cell context. RNPs were assembled by mixing 100 uM nuclease with 120 uM of synthetic guide with different spacer lengths (17-23 nt, Table 5) and 100 uM Cas9 electroporation enhancer (IDT). After 10 minutes of incubation at room temperature, the RNP complexes were mixed with 200,000 pre-washed U2OS, iPSC, or HSC cells and electroporated using Lonza SE or P3 Cell Line 4D-Nucleofector™ X Kit with the DN100 or CA137 program, respectively, according to the manufacture's protocol. At 72 h cells were lysed and their genomic DNA was used in a PCR reaction to amplify the corresponding putative genomic targets. Amplicons were subjected to NGS and the resulting sequences were then used to calculate the percentage of editing events.

| Molecule | activity (1-depletion score) [1] | activity [2] [% indels] |
| --- | --- | --- |
| GGAAGAGCAGAGCCUUGGUCUCGUUUGAGAGUUAUGUAAGAAAUUACAUGACGAGUUCAAAUAAAAAUUUAUUCAAACCGCCUAUUUAUAGGCCGCAGAUGUUCUGCAUUAUGCUUGCUAUUGCAAGCUUUUUU / GGAAGAGCAGAGCCTTGGTCTCNNNNNNNN / NNNNNNNNGAGACCAAGGCTCTGCTCTTCC [T2 sgRNA V2 ; T2 protospacer 8N PAM library] | 0.98 | – |
| ELANE g35 sgRNA V2 22 nt spacer ; ELANE g35 on-target (ssRNA ; dsDNA, three 2'-OMe 3'-PS at 5' and 3' ends) RNA: GCAGUCCGGGCUGGGAGCGGGUGUUUGAGAGUUAUGUAAGAAAUUACAUGACGAGUUCAAAUAAAAAUUUAUUCAAACCGCCUAUUUAUAGGCCGCAGAUGUUCUGCAUUAUGCUUGCUAUUGCAAGCUUUUUU DNA 1: CTGTTGCTGCAGTCCGGGCTGGGAGCGGGTGGGGAGCAGAGGG DNA 2: CCCTCTGCTCCCCACCCGCTCCCAGCCCGGACTGCAGCAACAG | – | 90.9 |
| ELANE g35 sgRNA V2 20 nt spacer ; ELANE g35 on-target (ssRNA ; dsDNA, three 2'-OMe 3'-PS at 5' and 3' ends) RNA: AGUCCGGGCUGGGAGCGGGUGUUUGAGAGUUAUGUAAGAAAUUACAUGACGAGUUCAAAUAAAAAUUUAUUCAAACCGCCUAUUUAUAGGCCGCAGAUGUUCUGCAUUAUGCUUGCUAUUGCAAGCUUUUUU DNA 1: CTGTTGCTGCAGTCCGGGCTGGGAGCGGGTGGGGAGCAGAGGG DNA 2: CCCTCTGCTCCCCACCCGCTCCCAGCCCGGACTGCAGCAACAG | – | 43.8 |
| ELANE g35 sgRNA V2 17 nt spacer ; ELANE g35 on-target (ssRNA ; dsDNA, three 2'-OMe 3'-PS at 5' and 3' ends) RNA: CCGGGCUGGGAGCGGGUGUUUGAGAGUUAUGUAAGAAAUUACAUGACGAGUUCAAAUAAAAAUUUAUUCAAACCGCCUAUUUAUAGGCCGCAGAUGUUCUGCAUUAUGCUUGCUAUUGCAAGCUUUUUU DNA 1: CTGTTGCTGCAGTCCGGGCTGGGAGCGGGTGGGGAGCAGAGGG DNA 2: CCCTCTGCTCCCCACCCGCTCCCAGCCCGGACTGCAGCAACAG | – | 0.54 |
